Measured values: patent US20080311122A1 (AstraZeneca / MedImmune, published 2008)

T1: recombinant HMG1 purified from E. coli as a calmodulin binding protein (CBP) fusion protein (human, UniProt A9RA84 1-215 (Papio anubis entry))
T1 construct: also called rHMG1; rHMGB1
T1 sequence: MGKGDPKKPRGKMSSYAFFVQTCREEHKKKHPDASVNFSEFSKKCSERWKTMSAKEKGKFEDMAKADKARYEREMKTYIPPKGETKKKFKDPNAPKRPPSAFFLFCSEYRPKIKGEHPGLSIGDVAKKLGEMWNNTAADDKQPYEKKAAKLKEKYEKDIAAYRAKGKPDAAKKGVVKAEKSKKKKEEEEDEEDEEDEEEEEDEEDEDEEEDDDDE

T2: HMG1 purified from bovine (calf) thymus (bovine, UniProt P10103 2-215)
T2 construct: also called Calf thymus HMGB1; thymus HMG1
T2 sequence (looked up): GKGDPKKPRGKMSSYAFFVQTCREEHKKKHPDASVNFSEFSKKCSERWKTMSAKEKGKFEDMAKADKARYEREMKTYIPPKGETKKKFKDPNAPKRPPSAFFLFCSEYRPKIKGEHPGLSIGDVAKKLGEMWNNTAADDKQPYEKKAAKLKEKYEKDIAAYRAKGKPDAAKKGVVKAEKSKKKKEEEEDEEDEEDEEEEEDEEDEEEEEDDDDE

T3: HMG1 B Box peptide amino acids 150-183
T3 peptide: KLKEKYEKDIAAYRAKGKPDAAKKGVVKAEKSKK

T4: HMG2 (UniProt P40673 2-209, limits assumed)
T4 construct: also called HMGB2; HMBG2
T4 sequence (looked up): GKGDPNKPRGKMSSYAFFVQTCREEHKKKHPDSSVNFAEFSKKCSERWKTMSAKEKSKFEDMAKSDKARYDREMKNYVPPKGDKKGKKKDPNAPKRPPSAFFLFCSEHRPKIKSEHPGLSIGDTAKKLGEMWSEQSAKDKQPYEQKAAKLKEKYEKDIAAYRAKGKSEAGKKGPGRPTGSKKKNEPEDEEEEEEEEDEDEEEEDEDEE

T5: HMG1 B Box peptide amino acids 91-169
T5 construct: also called HMG1 peptide 91-169
T5 peptide: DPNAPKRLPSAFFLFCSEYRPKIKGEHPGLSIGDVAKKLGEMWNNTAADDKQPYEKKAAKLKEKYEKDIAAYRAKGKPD


Assays:
[1] = target: T1, recombinant HMG1 purified from E. coli …; assay: BIAcore, mAb immobilized, HMG1 injected, steady-state model
Description: HMG1 Binding Affinity via BIAcore Analysis: All experiments were performed on a BIAcore 3000 instrument (BIAcore, Inc., Piscataway, N.J.). Briefly, each mAb was immobilized to a CM5 sensor chip using a standard amino coupling chemistry. Separately a reference (control) flow cell was also prepared. Two-fold, serial dilutions of HMG1 in instrument buffer were sequentially injected at a slow flow rate over the individual mAb and reference flow-cell surfaces. Following the binding and dissociation of HMG1, the mAbs surfaces were regenerated with a brief pulse of 1M NaCl-50 mM NaOH. At the end of each experiment, the binding curves were evaluated using a steady-state model available through the BIA evaluation software supplied by BIAcore, Inc. (Piscataway, N.J.).

[2] = target: T1, recombinant HMG1 purified from E. coli …; assay: cell-based or functional assay
[3] = target: T2, HMG1 purified from bovine (calf) thymus; assay: ELISA, wells coated with calf thymus HMGB1 at 5 ug/mL, antibody at 10 ug/mL, anti-human kappa/lambda-HRP, OD 490
Description: (§1) Binding to HMG1 vs. HMG2: Ultra high-binding ELISA plates (ThermoLab systems, #3855) were coated with either 5 ug/mL of Calf thymus HMGB1 or HMBG2 diluted in 10 mM Phosphate buffered saline (PBS), pH 7.2 and incubate overnight at 4 degrees. The plates were washed twice with Ca and Mg free PBS and 100 microliters of anti-HMGB1 antibody diluted in 10 mM PBS, pH 7.2+1% bovine serum albumin (BSA) to a final concentration of 10 ug/mL was added to each well and the plates were incubated 1 hour at room temperature. The wells were washed three times with 100 μl of PBS, pH 7.2. HRP labeled goat-anti-human IgG Kappa-chain (KPL, #14-10-10) and goat-anti-human IgG Lambda-chain (KPL, #14-10-11) were diluted in 10 mM PBS+1% BSA 1:1000 and 100 μl were added to each well and incubated for 1 hour at room temperature. The wells were then washed three times with 100 μl of PBS, pH 7.2. OPD substrate (Pierce chemical company, #34006) was prepared following the manufacturers instructions and 100 μl of prepared substrate was added to each well and the plates incubated at room temperature in the dark for 20-30 minutes. The reaction was stopped with the addition of 100 μl of 2M H₂SO₄, and the plates read on a plate reader at a wavelength of 490 nm.

[4] = target: T3, HMG1 B Box peptide amino acids 150-183; assay: ELISA, wells coated with HMG1 B Box peptide 150-183 at 10 ug/ml
Description: (§2) The plate was then blocked with 4% milk powder dissolved in PBS at 37° C. for 1 hour. The blocking solution was removed and replaced with human anti-HMG1 antibodies at various concentrations (see FIGS. 5A-B). […] HRP activity was detected with Sureblue HRP substrate (KPL). Plates were read at 450 nm using a Kinetic Microplate Reader (Molecular Devices). […] After washing and blocking with 1% BSA in PBS, the biotinylated peptides were individually added into the avidin coated wells and incubated for 30 min at room temperature. The serial diluted antibody G4, S16 and S6 at the initial concentration at 10 μg/ml were then transferred into the wells followed by adding mouse anti human IgG-HRP conjugate (Pierce). Detection was accomplished by adding 50 μl of tetramethylbenzidine (TMB) substrate (KPL) and the absorbance was read at […].

HMG2 = target: T4, HMG2; assay: ELISA, wells coated with HMGB2 at 5 ug/mL, OD 490
Description: as §1

[5] = target: T5, HMG1 B Box peptide amino acids 91-169; assay: ELISA, wells coated with HMG1 B Box peptide 91-169 at 10 ug/ml
Description: as §2

Binder | Kd [1] [nM] | IC50, inhibition of rHMG1 stimulated IL-6 release from human PBMC [2] [nM] | binding result [3] | binding result [4] | binding result [5] | IC50, inhibition of HMG1 stimulated NO release from macrophages [2] [µg/mL] | IC50, inhibition of rHMG1 stimulated IL-1β release from human PBMC [2] [µg/mL] | IC50, inhibition of rHMG1 stimulated TNF-α release from human PBMC [2] [µg/mL] | IC50, inhibition of rHMG1 stimulated IL-12 release from human PBMC [2] [µg/mL] | binding result (HMG2)
anti-HMG1 antibody G35 (antibody, V domains shown) VH: EVQLLESGGGLVQPGGSLRLSCAASGFTFSWYKMVWVRQAPGKGLEWVSSIVPSGGITIYADSVKGRFTISRDNSKNTLYLQMNSLRAEDTAVYYCARVQQWLGRPYFDYWGQGTLVTVSS VL: DIQMTQSPLSLPVTPGEPASISCRSSQSLLHGNGYNYLDWYLQRPGQSPQLLIYSGSNRASGVPDRFSGSGSGTDFTLKISRVEAEDVGVYYCMQSLQSRTFGQGTKVEIK | 242 | 0.564 | binds | no binding (tested: 10 ug/ml (log 1.00)) |  |  |  |  |  | no binding (tested: 10 ug/mL (not on the sheet))
anti-HMG1 antibody G20 (antibody, V domains shown) VH: EVQLLESGGGLVQPGGSLRLSCAASGFTFSWYDMFWVRQAPGKGLEWVSWISPSGGYTKYADSVKGRFTISRDNSKNTLYLQMNSLRAEDTAMYYCARSGLDYYDSSGYLDAFDIWGQGTMVTVSS VL: DIQMTQSPSSVSASVGDRVTITCRASQDVSIWLAWYQQKPGKAPKLLIFGASRLQSGVPSRFSGSRSGADFTLTIDSVQPEDFASYYCQQADSFPLTFGGGTKVEIK |  | 0.652 | binds |  | no binding (tested: 10 ug/ml (log 1.00)) | 20.4 | 0.4 | 0.598 |  | no binding (tested: 10 ug/mL (not on the sheet))
anti-HMG1 antibody S14 (antibody, V domains shown) VH: EVQLLESGGGLVQPGGSLRLSCAASGFTFSWYETGWVRQAPGKGLEWVSGISPSGGYTQYADSVKGRFTISRDNSKNTLYLQMNSLRAEDTAVYYCARSGVGATKIFDYWGQGTLVTVSS VL: DIQMTQSPSSLSASVGDRVTIICRANERINTYLNWYQQKPGKAPKLLISGTSSLESGVPSRFSGSGSGTEFTLSISSLQPEDFASYYCQQSYSSPYTFGQGTNLEIR | 205 | 0.191 | binds | no binding (tested: 10 ug/ml (log 1.00)) | no binding (tested: 10 ug/ml (log 1.00)) |  | 0.0678 | 0.0662 |  | no binding (tested: 10 ug/mL (not on the sheet))
anti-HMG1 antibody G9 (antibody, V domains shown) VH: EVQLLESGGGLVQPGGSLRLSCAASGFTFSSYDMFWVRQAPGKGLEWVSRISPSGGYTYYADSVKGRFTISRDNSKNTLYLQMNSLRAEDTAVYYCARLRYFDSRGYAFDIWGQGTMVTVSS VL: DIQMTQSPGTLSLSPGERATLSCRASQSVRSSYLAWYQQKPGQAPRLLIYGASTRATGIPDRFSGSGSGTDFTLTISRLEPEDFAVYYCQQYGTSRWTFGQGTKVEIK | 125 | 0.246 | binds | no binding (tested: 10 ug/ml (log 1.00)) | no binding (tested: 10 ug/ml (log 1.00)) |  | 0.211 | 0.248 |  | no binding (tested: 10 ug/mL (not on the sheet))

More lines, in order of falling Kd [1], values ahead:

Kd [1] [nM] | IC50, inhibition of rHMG1 stimulated IL-6 release from human PBMC [2] [nM] | binding result [3] | binding result [4] | binding result [5] | IC50, inhibition of HMG1 stimulated NO release from macrophages [2] [µg/mL] | IC50, inhibition of rHMG1 stimulated IL-1β release from human PBMC [2] [µg/mL] | IC50, inhibition of rHMG1 stimulated TNF-α release from human PBMC [2] [µg/mL] | IC50, inhibition of rHMG1 stimulated IL-12 release from human PBMC [2] [µg/mL] | Binder | binding result (HMG2)
73 | 1.12 | binds | no binding (tested: 10 ug/ml (log 1.00)) | no binding (tested: 10 ug/ml (log 1.00)) |  | 5.91 | 0.796 | 2.79 | anti-HMG1 antibody G12 (antibody, V domains shown) VH: EVQLLESGGGLVQPGGSLRLSCAASGFTFSYYMMTWVRQAPGKGLEWVSSISPSGGYTIYADSAKGRFTISRDNSKNTLYLQMNSLRAEDTAVYYCARALSTGSFWDYWGQGTLVTVSS VL: DIQMTQSPGTLSLSPGERATLSCRASESLTSTYVAWYQHKPGQAPRLLIHGGSTRATGIPVRFSGSGSGTDFTLTIATLEPEDFAVYYCQQYGSSPYTFGQGTKLEIK | no binding (tested: 10 ug/mL (not on the sheet))
67 | 0.858 | binds | no binding (tested: 10 ug/ml (log 1.00)) | no binding (tested: 10 ug/ml (log 1.00)) |  |  |  |  | anti-HMG1 antibody G34 (antibody, V domains shown) VH: EVQLLESGGGLVQPGGSLRLSCAASGFTFSHYMMGWVRQAPGKGLEWVSRISPSGGGTVYADSVKGRFTISRDNSKNTLYLQMNSLRAEDTAVYYCARGGNWNYISYYYYYLDVWGKGTTVTVSS VL: DIQMTQSPSSLSASVGDRVAITCRASQSIDTYLNWYQQKPGKAPKLLIYAASKLEDGVPSRFSGSGTGTDFTLTIRSLQPEDFASYFCQQSYSSPGITFGPGTKVEIK | no binding (tested: 10 ug/mL (not on the sheet))
